Measurements as given in publication PMC8986097, “SUMO-mediated recruitment allows timely function of the Yen1 nuclease in mitotic cells” (PLoS Genetics, 2022).

B1: Yen1-1xHA, wild-type, purified [S. cerevisiae] / GST-Smt3 [S. cerevisiae] (parent complex)
chain 1: MGVSQIWEFLKPYLQDSRIPLRKFVIDFNKSQKRAPRIAIDAYGWLFECGFIQNIDISARSRSRSRSPTRSPRDSDIDSSQEYYGSRSYTTTGKAVINFISRLKELLSLNVEFLLVFDGVMKPSFKRKFNHEQNATTCDDEKEYYSSWEQHVKNHEVYGNCKGLLAPSDPEFISLVRKLLDLMNISYVIACGEGEAQCVWLQVSGAVDFILSNDSDTLVFGGEKILKNYSKFYDDFGPSSITSHSPSRHHDSKESFVTVIDLPKINKVAGKKFDRLSLLFFSVLLGADYNRGVKGLGKNKSLQLAQCEDPNFSMEFYDIFKDFNLEDLTSESLRKSRYRLFQKRLYLYCKDHSVELFGRNYPVLLNQGSFEGWPSTVAIMHYFHPIVQPYFDEEVLSDKYINMAGNGHYRNLNFNELKYFLQSLNLPQISSFDKWFHDSMHEMFLLREFLSIDESDNIGKGNMRITEEKIMNIDGGKFQIPCFKIRYTTFLPNIPISSQSPLKRSNSPSRSKSPTRRQMDIMEHPNSLWLPKYLIPQSHPLVIQYYETQQLIQKEKEKKGKKSNKSRLPQKNNLDEFLRKHTSPIKSIGKVGESRKEILEPVRKRLFVDTDEDTSLEEIPAPTRLTTVDEHSDNDDDSLIFVDEITNSQSVLDSSPGKRIRDLTQDEQVDVWKDVIEISPIKKSRTTNAEKNPPESGLKSRSSITINARLQGTKMLPPNLTAPRLEREHSSVLDQLVTDAQDTVDRFVACDSDSSSTIE
chain 2: MSDSEVNQEAKPEVKPEVKPETHINLKVSDGSSEIFFKIKKTTPLRRLMEAFAKRQGKEMDSLRFLYDGIRIQADQTPEDLDMEDNDIIEAHREQIGGATY

Variants of: B1
Assay: pull-down (GST-Smt3 on Glutathione resin, immuno-blot anti-HA); 1/10 inputs, 1/4 elution; parent: 1

Variant	ratio to parent
chain 1 V675A, chain 1 E677A	0.9
chain 1 D635A, chain 1 D636A, chain 1 D637A	0.9
